Changes are numbered by the printed parent chain.
B1: MS_M103205H795-SG1/M103202L889-SK1 (antibody, human IgG1, kappa)
heavy: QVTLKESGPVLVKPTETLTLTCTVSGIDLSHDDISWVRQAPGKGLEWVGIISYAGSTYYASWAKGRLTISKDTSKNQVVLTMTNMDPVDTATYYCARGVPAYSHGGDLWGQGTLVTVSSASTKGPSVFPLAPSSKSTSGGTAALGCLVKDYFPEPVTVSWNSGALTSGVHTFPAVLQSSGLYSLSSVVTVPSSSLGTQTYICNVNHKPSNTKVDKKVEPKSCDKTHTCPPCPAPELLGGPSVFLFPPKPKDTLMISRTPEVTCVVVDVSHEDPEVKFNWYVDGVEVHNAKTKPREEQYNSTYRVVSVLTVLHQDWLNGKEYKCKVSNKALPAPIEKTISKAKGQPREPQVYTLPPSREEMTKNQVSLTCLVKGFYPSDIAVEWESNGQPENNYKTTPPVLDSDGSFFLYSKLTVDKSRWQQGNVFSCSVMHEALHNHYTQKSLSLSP
light: DIVMTQSPATLSLSPGERATLSCTSSQSVYHANWLSWFQQKPGQPPKLLIYWASTLAYGVPSRFSGSGSGTDFTLTISSLQPEDAATYYCAGGYGGGRYAFGQGTKVEIKRTVAAPSVFIFPPSDEQLKSGTASVVCLLNNFYPREAKVQWKVDNALQSGNSQESVTEQDSKDSTYSLSSTLTLSKADYEKHKVYACEVTHQGLSSPVTKSFNRGEC
notes: Parent of the Fc variants; also called MS1032LO06-SG1
B2: M103205H795-MY001/M103202L889-SK1 (antibody, human IgG1, kappa)
heavy: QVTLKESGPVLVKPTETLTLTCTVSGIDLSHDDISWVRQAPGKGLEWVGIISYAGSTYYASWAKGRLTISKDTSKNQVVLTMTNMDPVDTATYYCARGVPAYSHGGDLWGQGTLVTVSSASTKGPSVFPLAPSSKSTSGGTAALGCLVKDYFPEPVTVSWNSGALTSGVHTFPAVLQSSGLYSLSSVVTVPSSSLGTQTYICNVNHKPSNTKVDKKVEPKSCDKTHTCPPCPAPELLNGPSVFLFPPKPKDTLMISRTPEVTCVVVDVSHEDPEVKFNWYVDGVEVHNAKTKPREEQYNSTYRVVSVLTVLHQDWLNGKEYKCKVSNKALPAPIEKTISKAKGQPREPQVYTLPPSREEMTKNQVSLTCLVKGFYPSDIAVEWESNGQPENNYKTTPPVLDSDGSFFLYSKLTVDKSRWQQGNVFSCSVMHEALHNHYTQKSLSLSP
light: B1 light
notes: Substitutions introduced into M103205H795-SG1; expressed with M103202L889-SK1 as light chain
B3: M103205H795-MY105/M103202L889-SK1 (antibody, human IgG1, kappa)
heavy: QVTLKESGPVLVKPTETLTLTCTVSGIDLSHDDISWVRQAPGKGLEWVGIISYAGSTYYASWAKGRLTISKDTSKNQVVLTMTNMDPVDTATYYCARGVPAYSHGGDLWGQGTLVTVSSASTKGPSVFPLAPSSKSTSGGTAALGCLVKDYFPEPVTVSWNSGALTSGVHTFPAVLQSSGLYSLSSVVTVPSSSLGTQTYICNVNHKPSNTKVDKKVEPKSCDKTHTCPPCPAPELLNGPVVFLFPPKPKDTLMISRTPEVTCVVVDVSEEDPEVKFNWYVDGVEVHNAKTKPREEQYNSTYRVVSVLTVLHQDWLNGKEYKCKVSNKALPAPIEKTISKAKGQPREPQVYTLPPSREEMTKNQVSLTCLVKGFYPSDIAVEWESNGQPENNYKTTPMVLDSDGSFFLYSKLTVDKSRWQQGNVFSCSVMHEALHNHYTQKSLSLSP
light: B1 light
notes: as for B2
B4: M103205H795-MY047/M103202L889-SK1 (antibody, human IgG1, kappa)
heavy: not shown
light: B1 light
notes: as for B2
B5: M103205H795-MY115/M103202L889-SK1 (antibody, human IgG1, kappa)
heavy: B3 heavy with V241S, S269A
light: B1 light
notes: as for B2

Experiments:
[1] = target: T1, cynomolgus monkey FcγRIIIaS extracellular domain, C-terminal His-tag (cynomolgus monkey, UniProt Q8SPW2 21-206 at identity 1.00)); experiment: SPR (Biacore), antibody captured, FcgR analyte
T1 construct: also called cyno FcγRIIIaS; cynoFcγRIIIaS
T1 chain: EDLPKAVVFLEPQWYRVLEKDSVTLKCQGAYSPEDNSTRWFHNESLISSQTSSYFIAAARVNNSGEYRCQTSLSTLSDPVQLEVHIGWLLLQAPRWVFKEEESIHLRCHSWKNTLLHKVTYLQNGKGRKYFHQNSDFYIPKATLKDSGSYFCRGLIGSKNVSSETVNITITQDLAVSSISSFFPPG

[2] = target: T2, cynomolgus monkey FcγRIIb extracellular domain, C-terminal His-tag (cynomolgus monkey); experiment: SPR (Biacore); KD of SG1 / KD of variant;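 also: relative to parent M103205H795-SG1 carrying the SG1 human heavy chain constant region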
T2 construct: also called cyno FcγRIIb; cynoFcγRIIb
T2 chain: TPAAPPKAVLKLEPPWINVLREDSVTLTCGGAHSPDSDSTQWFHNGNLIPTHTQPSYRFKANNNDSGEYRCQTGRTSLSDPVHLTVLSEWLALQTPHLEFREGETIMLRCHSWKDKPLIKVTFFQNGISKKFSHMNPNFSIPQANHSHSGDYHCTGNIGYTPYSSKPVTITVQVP
Experimental: (§1) The kinetic analysis of interactions between these antibodies and FcγR was carried out using BIACORE® T200 or BIACORE® 4000 (GE Healthcare). HBS-EP+ (GE Healthcare) was used as the running buffer, and the measurement temperature was set to 25° C. A chip produced by immobilizing Protein A. Protein A/G or mouse anti-human IgG kappa light chain (BD Biosciences) onto a Series S Sensor Chip CM4 or CM5 (GE Healthcare) by the amine-coupling method was used. […] After the measurement, the antibody captured on the chip was washed off by allowing reaction with 10 mM glycine-HCl, pH1.5 and 25 mM NaOH so that the chip was regenerated and used repeatedly. The sensorgrams obtained as measurement results were analyzed by the 1:1 Langmuir binding model using the BIACORE® Evaluation Software to calculate the binding rate constant ka (L/mol/s) and dissociation rate constant kd (l/s), and the dissociation constant KD (mol/L) was calculated from these values. […] Regarding such interactions, KD values were calculated using the following 1:1 binding model described in BIACORE® T100 Software Handbook BR1006-48 Edition AE.
(§2) The behavior of interacting molecules according to the 1:1 binding model on BIACORE® can be described by Equation 1: Req=C·R max/(KD+C)+RI, wherein, Req is a plot of steady-state binding levels to analyte concentration. C is concentration, RI is bulk refractive index contribution in the sample, and Rmax is analyte binding capacity of the surface. When this equation is rearranged, KD can be expressed as Equation 2: KD=C·Rmax/(Req−RI)−C. KD can be calculated by substituting the values of Rmax, RI, and C into Equation 1 or Equation 2. From the current measurement conditions, RI=0, C=2 μmol/L can be used.

[3] = target: T3, human FcγRIIaH extracellular domain, C-terminal His-tag (human, UniProt P12318 34-217); experiment: SPR (Biacore); KD of SG1 / KD of variant;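 also: relative to parent M103205H795-SG1 carrying the SG1 human heavy chain constant region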
T3 construct: also called human FcγRIIa (type H); FcgRIIaH
T3 sequence: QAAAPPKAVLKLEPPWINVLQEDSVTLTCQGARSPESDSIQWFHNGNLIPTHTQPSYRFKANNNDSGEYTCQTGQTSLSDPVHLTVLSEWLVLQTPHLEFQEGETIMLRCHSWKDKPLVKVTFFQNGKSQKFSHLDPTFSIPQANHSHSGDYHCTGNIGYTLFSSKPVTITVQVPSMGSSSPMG
Experimental: as §1, §2

[4] = target: T4, human FcγRIIIaV extracellular domain, C-terminal His-tag (human, UniProt P08637 17-208); experiment: SPR (Biacore); KD of SG1 / KD of variant;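 also: relative to parent M103205H795-SG1 carrying the SG1 human heavy chain constant region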
T4 construct: also called human FcgRIIIaV; FcgRIIIaV
Experimental: as §1, §2

[5] = target: T5, human FcγRIIaR extracellular domain, C-terminal His-tag (human, UniProt P12318 34-217); experiment: SPR (Biacore); KD of SG1 / KD of variant;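 also: relative to parent M103205H795-SG1 carrying the SG1 human heavy chain constant region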
T5 construct: also called human FcγRIIa (type R); FcgRIIaR
T5 chain: T3 sequence with H134R
Experimental: as §1, §2

[6] = target: T6, human FcγRIIb extracellular domain, C-terminal His-tag (human, UniProt P31994 43-217); experiment: SPR (Biacore); KD of SG1 / KD of variant
T6 construct: also called human FcgRIIb; FcgRIIb
T6 sequence: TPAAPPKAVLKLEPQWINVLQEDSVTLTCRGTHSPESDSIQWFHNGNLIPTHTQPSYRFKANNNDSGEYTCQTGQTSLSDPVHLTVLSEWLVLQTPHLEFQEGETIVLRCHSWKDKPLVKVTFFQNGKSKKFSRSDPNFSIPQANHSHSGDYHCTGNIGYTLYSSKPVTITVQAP
Experimental: as §1, §2

[7] = target: T7, cynomolgus monkey FcγRIIa2 extracellular domain, C-terminal His-tag (cynomolgus monkey); experiment: SPR (Biacore); KD of SG1 / KD of variant
T7 construct: also called cyno FcγRIIa2; cynoFcgRIIa2
T7 chain: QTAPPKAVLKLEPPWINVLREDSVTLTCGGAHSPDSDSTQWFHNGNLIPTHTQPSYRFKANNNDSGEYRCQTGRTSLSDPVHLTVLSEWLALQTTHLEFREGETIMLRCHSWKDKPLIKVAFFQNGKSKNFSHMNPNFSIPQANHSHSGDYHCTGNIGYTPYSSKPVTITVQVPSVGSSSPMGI
Experimental: as §1, §2

[8] = target: T1, cynomolgus monkey FcγRIIIaS …; experiment: SPR (Biacore); KD of SG1 / KD of variant
Experimental: as §1, §2

[9] = target: T8, cynomolgus monkey FcγRIIa3 extracellular domain, C-terminal His-tag (cynomolgus monkey); experiment: SPR (Biacore); KD of SG1 / KD of variant
T8 construct: also called cyno FcγRIIa3; cynoFcgRIIa3
T8 chain: T7 chain with K127I, N130K, H133P, Q142R
Experimental: as §1, §2

T4 sequence (P08637 17-208 F176V): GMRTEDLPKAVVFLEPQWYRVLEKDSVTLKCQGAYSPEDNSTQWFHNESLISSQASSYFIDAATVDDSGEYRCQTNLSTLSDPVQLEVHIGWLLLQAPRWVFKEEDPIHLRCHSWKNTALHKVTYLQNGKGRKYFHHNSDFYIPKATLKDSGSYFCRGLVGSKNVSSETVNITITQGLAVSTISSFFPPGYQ

Binder | Kd [1] [µM] | KD fold (SG1 = 1) [2] [fold] | KD fold (SG1 = 1) [3] [fold] | KD fold (SG1 = 1) [4] [fold] | KD fold (SG1 = 1) [5] [fold] | KD fold (SG1 = 1) [6] [fold] | KD fold (SG1 = 1) [7] [fold] | KD fold (SG1 = 1) [8] [fold] | KD fold (SG1 = 1) [9] [fold]
B1 | 0.36 | 1 | 1 | 1 | 1 | 1 | 1 | 1 | 1
B2 | 1.2 | 1 | 0.2 | 0.04 | 0.1 | 0.6 | 1.4 | 0.05 | 1.1
B3 | 13 | 4.6 | 0.5 | 0.14 | 0.8 | 8.1 | 5.7 | 0.28 | 13.1
B4 | 7.8 | 0.7 | 0.2 |  | 0.5 | 1.2 | 1.5 | 0.05 | 0.7
B5 | 0.85 | 2.3 | 0.7 | 0.22 | 1.7 | 14.4 | 1.9 | 0.42 | 2.2

Source: patent publication US20200317768A1 (published 2020)
